Assay [1] addresses EBOV GPCL (cleaved GP) (Ebola virus (EBOV)) (UniProt Q05320).
Assay [2] addresses EBOV GP on rVSV particles (Ebola virus (EBOV)) (UniProt Q05320). In words: cell-based or functional assay.
The target of assay [3] is GP of authentic (wild-type) SUDV (Sudan virus (SUDV)) (UniProt Q66814). In words: cell-based or functional assay.
Assay [4] deals with BDBV GP on rVSV particles (Bundibugyo virus (BDBV)). In words: cell-based or functional assay.
The target in assay [5] is GP of authentic (wild-type) BDBV (Bundibugyo virus (BDBV)). In words: cell-based or functional assay.
The target of assay [6] is GP of authentic (wild-type) EBOV (Ebola virus (EBOV)) (UniProt P87666). In words: cell-based or functional assay.
GP of authentic (wild-type) EBOV (Ebola virus (EBOV)), sequence (P87666 33-676): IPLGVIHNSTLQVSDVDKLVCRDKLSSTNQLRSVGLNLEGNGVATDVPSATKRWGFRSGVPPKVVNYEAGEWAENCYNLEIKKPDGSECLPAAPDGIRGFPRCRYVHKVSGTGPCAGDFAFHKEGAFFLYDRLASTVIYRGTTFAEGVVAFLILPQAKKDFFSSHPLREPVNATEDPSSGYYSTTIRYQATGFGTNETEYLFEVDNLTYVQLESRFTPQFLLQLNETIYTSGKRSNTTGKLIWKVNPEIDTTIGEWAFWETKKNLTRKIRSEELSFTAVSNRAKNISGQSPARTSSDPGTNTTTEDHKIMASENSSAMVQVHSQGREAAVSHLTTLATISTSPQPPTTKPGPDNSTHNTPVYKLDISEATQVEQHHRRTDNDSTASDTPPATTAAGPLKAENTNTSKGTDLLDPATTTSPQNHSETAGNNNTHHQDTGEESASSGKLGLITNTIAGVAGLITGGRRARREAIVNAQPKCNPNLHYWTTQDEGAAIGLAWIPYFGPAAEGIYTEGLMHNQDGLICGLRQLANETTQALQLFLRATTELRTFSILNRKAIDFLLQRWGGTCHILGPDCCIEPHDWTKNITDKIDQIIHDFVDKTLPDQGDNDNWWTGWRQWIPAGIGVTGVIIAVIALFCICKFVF
Assay [7] concerns the target TAFV GP on VSV pseudotype particles (Tai Forest virus (TAFV)) (UniProt Q66810). Put plainly: cell-based or functional assay.
In assay [8] the target is SUDV GP on rVSV particles (Sudan virus (SUDV)) (UniProt Q66814). Put plainly: cell-based or functional assay.
SUDV GP on rVSV particles (Sudan virus (SUDV)), sequence (Q66814 33-676): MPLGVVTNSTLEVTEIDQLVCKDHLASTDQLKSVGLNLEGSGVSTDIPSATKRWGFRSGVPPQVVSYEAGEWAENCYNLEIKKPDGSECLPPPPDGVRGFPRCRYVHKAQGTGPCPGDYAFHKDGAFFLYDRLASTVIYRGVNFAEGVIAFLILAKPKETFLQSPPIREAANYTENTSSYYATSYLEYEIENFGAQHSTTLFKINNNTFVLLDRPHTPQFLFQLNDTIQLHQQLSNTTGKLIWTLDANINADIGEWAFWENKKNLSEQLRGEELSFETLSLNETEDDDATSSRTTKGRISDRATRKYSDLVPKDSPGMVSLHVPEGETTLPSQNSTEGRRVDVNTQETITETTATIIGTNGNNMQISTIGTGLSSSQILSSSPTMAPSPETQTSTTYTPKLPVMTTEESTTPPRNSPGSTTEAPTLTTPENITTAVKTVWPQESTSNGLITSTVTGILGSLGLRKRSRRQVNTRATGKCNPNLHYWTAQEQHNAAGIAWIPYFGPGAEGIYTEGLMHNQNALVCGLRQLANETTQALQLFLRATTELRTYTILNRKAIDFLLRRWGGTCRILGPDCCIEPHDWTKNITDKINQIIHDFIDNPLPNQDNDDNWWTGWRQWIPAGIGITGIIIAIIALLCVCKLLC

In patent publication US20180244758A1 one finds Kd, rVSV-GP neutralization IC50 and Authentic virus neutralization IC50 data, which are given here for two molecules.

EBOV GP on rVSV particles (Ebola virus (EBOV)), sequence (Q05320 33-676): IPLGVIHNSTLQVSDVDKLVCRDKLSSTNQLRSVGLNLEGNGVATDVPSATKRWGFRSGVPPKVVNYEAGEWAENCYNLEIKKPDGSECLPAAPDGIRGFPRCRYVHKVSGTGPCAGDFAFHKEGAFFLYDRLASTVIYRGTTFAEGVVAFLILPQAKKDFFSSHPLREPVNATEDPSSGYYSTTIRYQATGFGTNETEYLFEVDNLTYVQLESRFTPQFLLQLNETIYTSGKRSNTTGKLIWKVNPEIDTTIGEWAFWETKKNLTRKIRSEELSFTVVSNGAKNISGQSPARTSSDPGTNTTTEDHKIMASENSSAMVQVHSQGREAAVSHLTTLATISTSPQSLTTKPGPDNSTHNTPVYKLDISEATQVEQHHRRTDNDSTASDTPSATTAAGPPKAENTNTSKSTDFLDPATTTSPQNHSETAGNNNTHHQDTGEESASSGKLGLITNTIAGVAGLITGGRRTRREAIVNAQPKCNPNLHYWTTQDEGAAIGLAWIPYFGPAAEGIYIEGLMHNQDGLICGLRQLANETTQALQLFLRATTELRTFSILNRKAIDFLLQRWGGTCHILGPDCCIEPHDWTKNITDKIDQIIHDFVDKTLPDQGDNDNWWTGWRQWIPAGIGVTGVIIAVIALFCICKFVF
TAFV GP on VSV pseudotype particles (Tai Forest virus (TAFV)), sequence (Q66810 33-676): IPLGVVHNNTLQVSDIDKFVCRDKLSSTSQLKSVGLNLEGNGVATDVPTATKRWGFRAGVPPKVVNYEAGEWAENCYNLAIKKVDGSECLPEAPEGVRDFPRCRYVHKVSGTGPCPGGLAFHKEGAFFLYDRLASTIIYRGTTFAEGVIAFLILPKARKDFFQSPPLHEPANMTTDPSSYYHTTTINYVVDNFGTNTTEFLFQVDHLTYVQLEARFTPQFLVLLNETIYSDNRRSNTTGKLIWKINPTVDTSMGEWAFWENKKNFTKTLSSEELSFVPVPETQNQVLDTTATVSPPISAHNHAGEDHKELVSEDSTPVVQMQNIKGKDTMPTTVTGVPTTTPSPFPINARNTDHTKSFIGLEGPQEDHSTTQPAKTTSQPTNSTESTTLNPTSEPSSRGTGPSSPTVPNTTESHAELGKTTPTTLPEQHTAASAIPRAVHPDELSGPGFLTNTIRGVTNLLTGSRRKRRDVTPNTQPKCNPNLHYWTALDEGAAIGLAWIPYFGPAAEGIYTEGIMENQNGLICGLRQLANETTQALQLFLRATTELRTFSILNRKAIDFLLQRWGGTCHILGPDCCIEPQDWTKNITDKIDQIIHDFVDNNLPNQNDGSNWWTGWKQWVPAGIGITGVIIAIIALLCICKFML
EBOV GPCL (cleaved GP) (Ebola virus (EBOV)), sequence (Q05320 33-190 limits assumed, chain 1 of 2): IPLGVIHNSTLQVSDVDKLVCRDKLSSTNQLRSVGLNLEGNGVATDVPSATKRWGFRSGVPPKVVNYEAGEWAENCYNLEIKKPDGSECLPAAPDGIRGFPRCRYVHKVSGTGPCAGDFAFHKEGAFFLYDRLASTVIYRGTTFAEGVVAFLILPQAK
EBOV GPCL (cleaved GP) (Ebola virus (EBOV)), sequence (Q05320 502-637 limits assumed, chain 2 of 2): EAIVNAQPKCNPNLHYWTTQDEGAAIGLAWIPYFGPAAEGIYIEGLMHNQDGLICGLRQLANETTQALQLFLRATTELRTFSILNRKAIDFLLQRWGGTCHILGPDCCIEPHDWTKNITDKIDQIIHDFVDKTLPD
GP of authentic (wild-type) SUDV (Sudan virus (SUDV)), sequence (Q66814 33-676): as the sequence (Q66814 33-676) above

B1: mAb PE-87 (antibody, V domains shown)
VH: QVQLVQSGVTLVQPGGSLRVSCAASGFTFSSYAMSWVRQAPGKGLEWVSAISGLGGSTYYADSVKGRFTISRDNSKNTLYLQMNSLRAEDTAVYYCAKDHRVWAAGYHFDYWGQGALVTVSS
VL: DIVLTQSPSTLSASVGDRVTITCRASQSISSWLAWYQQKPGEAPKLLISDASSLESGVPSRFSGSGSGTEFTLTISSLQPDDFATYYCQQYYSSPTFGGGTKVEIK
In the case of B1, in assay [1], the equilibrium dissociation constant (Kd) was < 0.001 nM.

B2: mAb PE-64 (antibody, V domains shown)
VH: EVQLVESGGGLVKPGGSLRLSCAASGFTFSNAWMSWVRQAPGKGLEWVGRIKSKTDGGTIDYAAPVKGRFTISRDDSKNTVYLQMTSLKTEDTAVYYCTTYTEDMRYFDWLLRGGETFDYWGQGTLVTVSS
VL: DIRLTQSPSSLSASVGDRVTITCRASHYISTYLNWYQQKPGKAPKLLIYAASNLQSGVPSRFSGSGFGTDFSLTISSLQPEDFATYHCQQSYSTPGRYTFGQGTKVEIK
In the case of B2, the rVSV-GP neutralization IC50 in assay [2] amounted to 2.5 nM; in assay [4] it was 0.4 nM; in assay [7] it was 8 nM; in assay [8], 40 nM. Also, the Authentic virus neutralization IC50 in assay [3] was found to be 120 nM; in assay [5], 1.5 nM; in assay [6] it was 0.6 nM.
